Data from US20260258117A1 (ACADEMISCH ZIEKENHUIS LEIDEN H O D N LUMC, published 2026).
Blank lines part the entries; values can stand above or below the binder they belong to.

How the values were obtained:
[1] = molecular target: T1, Complement Factor H protein (human, UniProt P08603 19-1231); experiment: bispecific ELISA
T1 construct: Plasma protein, bought purified or present in normal human serum; also called FH; CFH
Procedure: BsAbs were tested for binding to both antigens in a bispecific ELISA. MaxiSorp plates (Thermo Scientific, Nunc, 430341) were coated with 50 μL/well BSA-DNP (10 μg/mL, Biosearch Technologies, D-5050-10, conjugation ration 13) in coating buffer (0.1 M Na₂CO₃/NaHCO₃PH 9.6) for 1 hour at 37° C. After every incubation, plates were washed three times with PBS/0.05% Tween 20. Plates were blocked with 100 μL/well PBS/1% BSA for 1 hour at 37° C. After washing, plates were incubated with 50 μL/well (bs) Abs diluted in PBS/0.05% Tween 20/1% BSA (PTB buffer) for 1 hour at 37° C. Next, 1 μg/mL FH (CompTech, A137) or C4BP (CompTech, A109) diluted in PTB buffer was added. FH was detected using goat anti-human FH (Quidel, A312) and HRP-labeled rabbit anti-goat Ig (Dako, P0449), and C4BP was detected using rabbit anti-human C4BP (kind gift from Anna M. Blom, Malmö, Sweden) and HRP-labeled goat anti-rabbit Ig (Dako, P0448), all diluted in PTB buffer. Plates were developed by incubating with 50 μL/well ABTS (Merck, A1888-5G) containing 1:2000 diluted H₂O₂ (Merck, 1072090250), and read at 415 nm using a microplate reader (BIO-RAD iMark). It was confirmed by ELISA that the bsAbs can bind to a specific target (e.g., DNP as a model antigen) as well as FH or C4BP, whereas the parental monospecific antibodies cannot (FIG. 1A).

[2] = molecular target: T1, Complement Factor H protein; experiment: flow cytometry, FH detected on Ramos cells treated with bsAb and normal human serum
Procedure: Ramos cells (originally from ATCC) were plated at 100,000 cells/well (V-bottom microplate, Greiner Bio-One, 651101). Cells were incubated with 100 μL/well samples containing 0.3 μg/mL anti-CD20 wild-type with or without 20 μg/mL bsAbs (anti-FH x anti-HLA I and controls) with or without 10 μg/mL FH for 30 minutes. After every incubation, cells were washed with 150 μL/well PBS/1% FCS. Cells were incubated with 100 μL/well 10% NHS in RPMI (for FH detection in the presence of 50 μg/mL eculizumab) for 45 minutes at 37° C. Cell viability was measured by adding 100 μL/well 7-AAD (BD Pharmingen, 559925) 1:200 diluted in PBS/1% FCS. FH was detected using mouse anti-human FH (1:100, OX-23, generated in-house) and goat anti-mouse IgG AF488 (1:50, Life Technologies, A11001). Cells were measured using a FACSCanto flow cytometer (BD Biosciences).

C4b-binding protein = molecular target: T2, C4b-binding protein (human, UniProt P04003 49-597; P20851 18-252); experiment: bispecific ELISA and complement activation assay on biotinylated BSA-DNP, C4BP detected
T2 construct: also called C4BP
T2 sequence (looked up) 1: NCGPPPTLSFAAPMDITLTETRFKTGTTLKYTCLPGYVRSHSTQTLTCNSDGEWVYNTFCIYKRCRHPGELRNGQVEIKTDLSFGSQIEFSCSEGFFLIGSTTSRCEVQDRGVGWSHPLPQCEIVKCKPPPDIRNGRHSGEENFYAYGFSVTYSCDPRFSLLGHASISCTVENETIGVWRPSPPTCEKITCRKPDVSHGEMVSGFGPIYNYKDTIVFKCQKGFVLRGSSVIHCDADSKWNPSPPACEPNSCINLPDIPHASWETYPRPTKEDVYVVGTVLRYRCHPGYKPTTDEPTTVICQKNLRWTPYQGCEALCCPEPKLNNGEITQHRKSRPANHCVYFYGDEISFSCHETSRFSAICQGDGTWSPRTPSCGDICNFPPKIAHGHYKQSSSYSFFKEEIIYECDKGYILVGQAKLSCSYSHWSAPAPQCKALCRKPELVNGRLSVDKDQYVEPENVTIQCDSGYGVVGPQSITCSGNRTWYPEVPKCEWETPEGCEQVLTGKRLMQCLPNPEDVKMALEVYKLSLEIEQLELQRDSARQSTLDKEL
T2 sequence (looked up) 2: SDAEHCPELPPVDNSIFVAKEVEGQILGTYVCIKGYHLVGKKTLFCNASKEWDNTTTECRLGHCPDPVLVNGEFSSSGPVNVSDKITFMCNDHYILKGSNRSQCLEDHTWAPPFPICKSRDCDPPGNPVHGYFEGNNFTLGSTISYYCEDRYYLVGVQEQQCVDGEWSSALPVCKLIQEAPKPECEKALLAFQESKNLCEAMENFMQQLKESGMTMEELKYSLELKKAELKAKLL

T1 sequence (P08603 19-1231 limits assumed): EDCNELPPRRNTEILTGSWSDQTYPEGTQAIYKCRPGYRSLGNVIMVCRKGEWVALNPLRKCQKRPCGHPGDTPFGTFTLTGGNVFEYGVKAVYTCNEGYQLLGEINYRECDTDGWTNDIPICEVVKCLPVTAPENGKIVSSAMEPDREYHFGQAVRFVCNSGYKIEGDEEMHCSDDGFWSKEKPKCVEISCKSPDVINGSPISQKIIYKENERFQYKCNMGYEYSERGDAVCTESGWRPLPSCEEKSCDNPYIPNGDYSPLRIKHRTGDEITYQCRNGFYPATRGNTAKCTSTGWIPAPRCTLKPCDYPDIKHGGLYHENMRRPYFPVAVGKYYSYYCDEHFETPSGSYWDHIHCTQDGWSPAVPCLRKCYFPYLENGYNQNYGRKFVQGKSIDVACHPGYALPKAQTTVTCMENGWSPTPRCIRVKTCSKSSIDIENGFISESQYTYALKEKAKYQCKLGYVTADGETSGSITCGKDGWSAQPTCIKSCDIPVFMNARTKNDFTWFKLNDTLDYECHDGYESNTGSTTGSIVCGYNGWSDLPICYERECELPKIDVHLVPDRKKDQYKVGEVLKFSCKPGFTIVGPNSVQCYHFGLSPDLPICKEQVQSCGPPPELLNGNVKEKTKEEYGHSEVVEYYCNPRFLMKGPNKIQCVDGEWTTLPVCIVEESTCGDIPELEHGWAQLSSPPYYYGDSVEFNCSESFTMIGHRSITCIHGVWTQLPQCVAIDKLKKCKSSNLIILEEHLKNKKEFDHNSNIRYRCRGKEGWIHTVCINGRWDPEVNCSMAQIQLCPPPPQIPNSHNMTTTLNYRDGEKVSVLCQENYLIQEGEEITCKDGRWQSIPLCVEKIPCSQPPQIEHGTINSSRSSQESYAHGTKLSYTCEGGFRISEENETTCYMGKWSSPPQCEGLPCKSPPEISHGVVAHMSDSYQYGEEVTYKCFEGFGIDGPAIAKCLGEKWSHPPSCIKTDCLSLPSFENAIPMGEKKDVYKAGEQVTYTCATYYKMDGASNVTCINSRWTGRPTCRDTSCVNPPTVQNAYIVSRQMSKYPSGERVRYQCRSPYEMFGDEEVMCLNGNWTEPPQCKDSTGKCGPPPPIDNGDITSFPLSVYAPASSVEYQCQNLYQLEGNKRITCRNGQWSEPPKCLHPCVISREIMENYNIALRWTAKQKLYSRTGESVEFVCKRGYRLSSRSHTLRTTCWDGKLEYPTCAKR

binding result [1]: binds
B1: Anti-FH F405L LALAPG, Anti-DNP K409R LALAPG (bispecific antibody, human IgG1, kappa, L234A L235A)
heavy 1: EVQLQQSGPELVKPGASVKISCKASGYSFTGYFIHWVKQSHVKSLEWFGRINPYNGATDYNQNFKDKAILTIDESSSTAYMEIHSLTSDDSAVYYCARGLFLDYWGQGTTLTVSSASTKGPSVFPLAPSSKSTSGGTAALGCLVKDYFPEPVTVSWNSGALTSGVHTFPAVLQSSGLYSLSSVVTVPSSSLGTQTYICNVNHKPSNTKVDKRVEPKSCDKTHTCPPCPAPEAAGGPSVFLFPPKPKDTLMISRTPEVTCVVVDVSHEDPEVKFNWYVDGVEVHNAKTKPREEQYNSTYRVVSVLTVLHQDWLNGKEYKCKVSNKALGAPIEKTISKAKGQPREPQVYTLPPSREEMTKNQVSLTCLVKGFYPSDIAVEWESNGQPENNYKTTPPVLDSDGSFLLYSKLTVDKSRWQQGNVFSCSVMHEALHNHYTQKSLSLSPGK
light 1: DILMTQSPSSMSVSLGDTVSITCHASQGITSNIGWLQQKPGKSFKGLIYHGTNLEDGVPSRFSGSGSGADYSLTISSLESEDFADYYCVQYAQFPWTFGGGTKLEIKRTVAAPSVFIFPPSDEQLKSGTASVVCLLNNFYPREAKVQWKVDNALQSGNSQESVTEQDSKDSTYSLSSTLTLSKADYEKHKVYACEVTHQGLSSPVTKSFNRGEC
heavy 2: DVRLQESGPGLVKPSQSLSLTCSVTGYSITNSYYWNWIRQFPGNKLEWMVYIGYDGSNNYNPSLKNRISITRDTSKNQFFLKLNSVTTEDTATYYCARATYYGNYRGFAYWGQGTLVTVSAASTKGPSVFPLAPSSKSTSGGTAALGCLVKDYFPEPVTVSWNSGALTSGVHTFPAVLQSSGLYSLSSVVTVPSSSLGTQTYICNVNHKPSNTKVDKRVEPKSCDKTHTCPPCPAPEAAGGPSVFLFPPKPKDTLMISRTPEVTCVVVDVSHEDPEVKFNWYVDGVEVHNAKTKPREEQYNSTYRVVSVLTVLHQDWLNGKEYKCKVSNKALGAPIEKTISKAKGQPREPQVYTLPPSREEMTKNQVSLTCLVKGFYPSDIAVEWESNGQPENNYKTTPPVLDSDGSFFLYSRLTVDKSRWQQGNVFSCSVMHEALHNHYTQKSLSLSPGK
light 2: DIRMTQTTSSLSASLGDRVTISCRASQDISNYLNWYQQKPDGTVKLLIYYTSRLHSGVPSRFSGSGSGTDYSLTISNLEQEDIATYFCQQGNTLPWTFGGGTKLEIKRTVAAPSVFIFPPSDEQLKSGTASVVCLLNNFYPREAKVQWKVDNALQSGNSQESVTEQDSKDSTYSLSSTLTLSKADYEKHKVYACEVTHQGLSSPVTKSFNRGEC
notes: Made by controlled Fab-arm exchange of the two parental IgG1 kappa antibodies; also called anti-FH x anti-DNP

binding result [2]: binds
B2: Anti-FH F405L LALAPG, Anti-HLA I K409R LALAPG (bispecific antibody, human IgG1, kappa, L234A L235A)
heavy 1: EVQLQQSGPELVKPGASVKISCKASGYSFTGYFIHWVKQSHVKSLEWFGRINPYNGATDYNQNFKDKAILTIDESSSTAYMEIHSLTSDDSAVYYCARGLFLDYWGQGTTLTVSSASTKGPSVFPLAPSSKSTSGGTAALGCLVKDYFPEPVTVSWNSGALTSGVHTFPAVLQSSGLYSLSSVVTVPSSSLGTQTYICNVNHKPSNTKVDKRVEPKSCDKTHTCPPCPAPEAAGGPSVFLFPPKPKDTLMISRTPEVTCVVVDVSHEDPEVKFNWYVDGVEVHNAKTKPREEQYNSTYRVVSVLTVLHQDWLNGKEYKCKVSNKALGAPIEKTISKAKGQPREPQVYTLPPSREEMTKNQVSLTCLVKGFYPSDIAVEWESNGQPENNYKTTPPVLDSDGSFLLYSKLTVDKSRWQQGNVFSCSVMHEALHNHYTQKSLSLSPGK
light 1: DILMTQSPSSMSVSLGDTVSITCHASQGITSNIGWLQQKPGKSFKGLIYHGTNLEDGVPSRFSGSGSGADYSLTISSLESEDFADYYCVQYAQFPWTFGGGTKLEIKRTVAAPSVFIFPPSDEQLKSGTASVVCLLNNFYPREAKVQWKVDNALQSGNSQESVTEQDSKDSTYSLSSTLTLSKADYEKHKVYACEVTHQGLSSPVTKSFNRGEC
heavy 2: QVQLKQSGPGLVQPSQSLSLTCTVSGFSLTSYGVHWVRQPPGKGLEWLGVIWSGGSTDYNAAFISRLSIRKDNSKSQVFFKMNSLQADDTAIYYCARTFTTSTSAWFAYWGQGTLVTVSAASTKGPSVFPLAPSSKSTSGGTAALGCLVKDYFPEPVTVSWNSGALTSGVHTFPAVLQSSGLYSLSSVVTVPSSSLGTQTYICNVNHKPSNTKVDKRVEPKSCDKTHTCPPCPAPEAAGGPSVFLFPPKPKDTLMISRTPEVTCVVVDVSHEDPEVKFNWYVDGVEVHNAKTKPREEQYNSTYRVVSVLTVLHQDWLNGKEYKCKVSNKALGAPIEKTISKAKGQPREPQVYTLPPSREEMTKNQVSLTCLVKGFYPSDIAVEWESNGQPENNYKTTPPVLDSDGSFFLYSRLTVDKSRWQQGNVFSCSVMHEALHNHYTQKSLSLSPGK
light 2: SIVMTQTPKFLLVSAGDRVTITCKASQSVSNDVAWYQQKPGQSPKLLIYYASNRYTGVPDRFTGSGYGTDFTFTISTVQAEDLAVYFCQQDYSSPPWTFGGGTKLEIRRTVAAPSVFIFPPSDEQLKSGTASVVCLLNNFYPREAKVQWKVDNALQSGNSQESVTEQDSKDSTYSLSSTLTLSKADYEKHKVYACEVTHQGLSSPVTKSFNRGEC
notes: Made by controlled Fab-arm exchange; also called anti-FH x anti-HLA I

binding result (C4b-binding protein): binds
B3: Anti-C4BP F405L LALAPG, Anti-biotin K409R LALAPG (bispecific antibody, human IgG1, kappa, L234A L235A)
heavy 1: EVQLVESGGGLVKPGGSLKLSCAVSGFIFSDYYMYWVRQTPEKRLEWVATISDGGVYTYYPDSMKGRFTISRDNAKNNLYLQMSSLKSEDTAMYYCVRGDYYGNSLDYWGQGTSVTVSSASTKGPSVFPLAPSSKSTSGGTAALGCLVKDYFPEPVTVSWNSGALTSGVHTFPAVLQSSGLYSLSSVVTVPSSSLGTQTYICNVNHKPSNTKVDKRVEPKSCDKTHTCPPCPAPEAAGGPSVFLFPPKPKDTLMISRTPEVTCVVVDVSHEDPEVKFNWYVDGVEVHNAKTKPREEQYNSTYRVVSVLTVLHQDWLNGKEYKCKVSNKALGAPIEKTISKAKGQPREPQVYTLPPSREEMTKNQVSLTCLVKGFYPSDIAVEWESNGQPENNYKTTPPVLDSDGSFLLYSKLTVDKSRWQQGNVFSCSVMHEALHNHYTQKSLSLSPGK
light 1: DVVMTQTPLTLSITIGQPASISCKSSQSLLDGDGKTYLNWLLQRPGQSPKRLIYLVSKLDSGVPDRFTGSGSGTDFTLKISRVEAEDLGVYYCCQGTHFPWTFGRGTKLEIKRTVAAPSVFIFPPSDEQLKSGTASVVCLLNNFYPREAKVQWKVDNALQSGNSQESVTEQDSKDSTYSLSSTLTLSKADYEKHKVYACEVTHQGLSSPVTKSFNRGEC
heavy 2: QVKLQESGPGLVAPSQSLSITCTVSGFSLTAYGVDWVRQPPGKGLEWLGVIWGGGRTNYNSGLMSRLSIRKDNSKSQVFLTMNSLQTDDTAKYYCVKHTNWDGGFAYWGQGTTVTVSSASTKGPSVFPLAPSSKSTSGGTAALGCLVKDYFPEPVTVSWNSGALTSGVHTFPAVLQSSGLYSLSSVVTVPSSSLGTQTYICNVNHKPSNTKVDKRVEPKSCDKTHTCPPCPAPEAAGGPSVFLFPPKPKDTLMISRTPEVTCVVVDVSHEDPEVKFNWYVDGVEVHNAKTKPREEQYNSTYRVVSVLTVLHQDWLNGKEYKCKVSNKALGAPIEKTISKAKGQPREPQVYTLPPSREEMTKNQVSLTCLVKGFYPSDIAVEWESNGQPENNYKTTPPVLDSDGSFFLYSRLTVDKSRWQQGNVFSCSVMHEALHNHYTQKSLSLSPGK
light 2: DVVMTQSPLSLPVSLGDQASISCRSGQGLVYSNGDTYLHWYLQKPGQSPKLLIYKVSNRFSGVPDRFSGSGSGTDFTLKISRVEAEDLGVYFCSQSTHFPFTFGSGTKLEIKRTVAAPSVFIFPPSDEQLKSGTASVVCLLNNFYPREAKVQWKVDNALQSGNSQESVTEQDSKDSTYSLSSTLTLSKADYEKHKVYACEVTHQGLSSPVTKSFNRGEC
notes: Made by controlled Fab-arm exchange; also called anti-C4BP x anti-biotin
